Consider one protein from US20090111754.

One data set concerns the target T1, p65-P7.
T1 chain: NGLLAGDEDFSS

The target of another data set is T2, p65-P6.
T2 chain: NGLLSGDEDFSS

Another data set has as its target T3, p65-P1.
T3 chain: QLRRPSDRELSE

Another data set has as its target T4, p65-P8.
T4 chain: NGLLSGDEDFSA

B1: IKK complex immunoprecipitated from whole-cell extracts of TNF-treated cells (protein)
chain 1: MERPPGLRPGAGGPWEMRERLGTGGFGNVCLYQHRELDLKIAIKSCRLELSTKNRERWCHEIQIMKKLNHANVVKACDVPEELNILIHDVPLLAMEYCSGGDLRKLLNKPENCCGLKESQILSLLSDIGSGIRYLHENKIIHRDLKPENIVLQDVGGKIIHKIIDLGYAKDVDQGSLCTSFVGTLQYLAPELFENKPYTATVDYWSFGTMVFECIAGYRPFLHHLQPFTWHEKIKKKDPKCIFACEEMSGEVRFSSHLPQPNSLCSLVVEPMENWLQLMLNWDPQQRGGPVDLTLKQPRCFVLMDHILNLKIVHILNMTSAKIISFLLPPDESLHSLQSRIERETGINTGSQELLSETGISLDPRKPASQCVLDGVRGCDSYMVYLFDKSKTVYEGPFASRSLSDCVNYIVQDSKIQLPIIQLRKVWAEAVHYVSGLKEDYSRLFQGQRAAMLSLLRYNANLTKMKNTLISASQQLKAKLEFFHKSIQLDLERYSEQMTYGISSEKMLKAWKEMEEKAIHYAEVGVIGYLEDQIMSLHAEIMELQKSPYGRRQGDLMESLEQRAIDLYKQLKHRPSDHSYSDSTEMVKIIVHTVQSQDRVLKELFGHLSKLLGCKQKIIDLLPKVEVALSNIKEADNTVMFMQGKRQKEIWHLLKIACTQSSARSLVGSSLEGAVTPQTSAWLPPTSAEHDHSLSCVVTPQDGETSAQMIEENLNCLGHLSTIIHEANEEQGNSMMNLDWSWLTE
chain 2: MSWSPSLTTQTCGAWEMKERLGTGGFGNVIRWHNQETGEQIAIKQCRQELSPRNRERWCLEIQIMRRLTHPNVVAARDVPEGMQNLAPNDLPLLAMEYCQGGDLRKYLNQFENCCGLREGAILTLLSDIASALRYLHENRIIHRDLKPENIVLQQGEQRLIHKIIDLGYAKELDQGSLCTSFVGTLQYLAPELLEQQKYTVTVDYWSFGTLAFECITGFRPFLPNWQPVQWHSKVRQKSEVDIVVSEDLNGTVKFSSSLPYPNNLNSVLAERLEKWLQLMLMWHPRQRGTDPTYGPNGCFKALDDILNLKLVHILNMVTGTIHTYPVTEDESLQSLKARIQQDTGIPEEDQELLQEAGLALIPDKPATQCISDGKLNEGHTLDMDLVFLFDNSKITYETQISPRPQPESVSCILQEPKRNLAFFQLRKVWGQVWHSIQTLKEDCNRLQQGQRAAMMNLLRNNSCLSKMKNSMASMSQQLKAKLDFFKTSIQIDLEKYSEQTEFGITSDKLLLAWREMEQAVELCGRENEVKLLVERMMALQTDIVDLQRSPMGRKQGGTLDDLEEQARELYRRLREKPRDQRTEGDSQEMVRLLLQAIQSFEKKVRVIYTQLSKTVVCKQKALELLPKVEEVVSLMNEDEKTVVRLQEKRQKELWNLLKIACSKVRGPVSGSPDSMNASRLSQPGQLMSQPSTASNSLPEPAKKSEELVAEAHNLCTLLENAIQDTVREQDQSFTALDWSWLQTEEEEHSCLEQAS
On to B1, for which the “phosphorylation of peptide substrate in immunocomplex kinase assay” value with p65-P7 was “p65-peptides in which Ser 276, 529 or 536 were mutated into alanine did not undergo phosphorylation by the IKK complex”; with p65-P6, “precipitated IKK complex can phosphorylate p65-P1 and p65-p6”; with p65-P1, “precipitated IKK complex can phosphorylate p65-P1 and p65-p6”; with p65-P8, “p65-peptides in which Ser 276, 529 or 536 were mutated into alanine did not undergo phosphorylation by the IKK complex”; with p65-P2, “p65-peptides in which Ser 276, 529 or 536 were mutated into alanine did not undergo phosphorylation by the IKK complex”.
